B1: FEM1B (parent)
chain: TLAALLLNRSESDIRYLLGYVSQQ
B2: C22orf15 (parent)
chain: PRGRAHLLPNPYQQDFLGLPEELR

Variants of: B1
Test: protein stability index of a GFP-peptide fusion (GPS, HEK-293T) (PSI 1-6); higher = more stable
Settings: c terminus: a fixed tail appended
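Further: lentivirally expressed fusions sorted by FACS into six bins by GFP to DsRed ratio, PSI derived from sequencing read proportions per bin multiplied by bin number.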

| Variant | protein stability index |
| --- | --- |
| TLAALLWNRSESDIRYLLGYVSQQ | 2.28 |
| TLAALLLNRSRSDIRYLLGYVSQQ | 3.13 |
| TLAALLLNRSTSDIRYLLGYVSQQ | 2.44 |
| TLAALLLNRSWSDIRYLLGYVSQQ | 2.68 |
| TLAALLLNRSSSDIRYLLGYVSQQ | 3.2 |
| TLAALLLNRSESDIRYLLGYVSQK | 4.32 |
| TLAALLLNRSESDIRYLLGYVSQN | 2.6 |
| TLAALLLNRSESDIRYLLGYVSQS | 2.18 |
| TLAALLLNRSESDIRYLLGYVSQE | 2.39 |
| TLAALLLNRSESDIRYLLGYVSQP | 2.31 |
| TLAALLLNRSESDIRYLLGYVSQV | 1.75 |
| TLAALLLNRSESDLRYLLGYVSQQ | 2.7 |
| TLAALLLNRSESDTRYLLGYVSQQ | 2.56 |
| ILAALLLNRSESDIRYLLGYVSQQ | 3.74 |
| CLAALLLNRSESDIRYLLGYVSQQ | 3.15 |
| GLAALLLNRSESDIRYLLGYVSQQ | 2.61 |
| NLAALLLNRSESDIRYLLGYVSQQ | 2.8 |
| QLAALLLNRSESDIRYLLGYVSQQ | 1.85 |
| TPAALLLNRSESDIRYLLGYVSQQ | 1.93 |
| TMAALLLNRSESDIRYLLGYVSQQ | 2.24 |
| TLAALLLNRSESDIMYLLGYVSQQ | 3.35 |
| TLAALLLNRSESDISYLLGYVSQQ | 3.23 |
| TLAALLLNRSESDIAYLLGYVSQQ | 2.31 |

| Variant | protein stability index |
| --- | --- |
| TLAALLLNRSESDIRGLLGYVSQQ | 3.2 |
| TLAALLLNRSESDIRRLLGYVSQQ | 2.06 |
| TLAALLLNRSESDIRSLLGYVSQQ | 1.81 |
| TLAALLLNRSEQDIRYLLGYVSQQ | 2.69 |
| TLAALLLNRSEFDIRYLLGYVSQQ | 2.89 |
| TLAALLLNHSESDIRYLLGYVSQQ | 1.58 |
| TLAILLLNRSESDIRYLLGYVSQQ | 2.37 |
| TLACLLLNRSESDIRYLLGYVSQQ | 2.3 |
| TLANLLLNRSESDIRYLLGYVSQQ | 2.53 |
| TLAALQLNRSESDIRYLLGYVSQQ | 1.38 |
| TLAALKLNRSESDIRYLLGYVSQQ | 2.37 |
| TLAALPLNRSESDIRYLLGYVSQQ | 2.21 |
| TLAALLLFRSESDIRYLLGYVSQQ | 2.45 |
| TLAALLLQRSESDIRYLLGYVSQQ | 3.3 |
| TLAALLLRRSESDIRYLLGYVSQQ | 3 |
| TLAALLLCRSESDIRYLLGYVSQQ | 4.47 |
| TLAALLLIRSESDIRYLLGYVSQQ | 1.53 |
| TLAALLLNRSESHIRYLLGYVSQQ | 3.21 |
| TLAALLLNRSESPIRYLLGYVSQQ | 2.13 |
| TLAAILLNRSESDIRYLLGYVSQQ | 3.24 |
| TLAAFLLNRSESDIRYLLGYVSQQ | 5.25 |
| TLAAWLLNRSESDIRYLLGYVSQQ | 2.25 |
| TLAATLLNRSESDIRYLLGYVSQQ | 2.71 |

| Variant | protein stability index |
| --- | --- |
| TLAALLLNRSESDIRYLLGRVSQQ | 3.14 |
| TLAALLLNRSESDIRYLLGMVSQQ | 4.22 |
| TLAALLLNRSESDIRYLSGYVSQQ | 3.62 |
| TLAALLLNRSESDIRYLTGYVSQQ | 3.06 |
| TLAALLLNRSESDIRYLHGYVSQQ | 2.17 |
| TLAALLLNRSESDIRYLEGYVSQQ | 1.78 |
| TLAALLLNRSESDIRYLLGYSSQQ | 3.12 |
| TLAALLLNRSESDIRYLLGYCSQQ | 3.21 |
| TLAALLLNRSESDIRYLLGYGSQQ | 1.62 |
| TLAALLLNRSESDIRYLLGYMSQQ | 2.17 |
| TLAALLLNRSESDIRYLLGYVVQQ | 2.25 |
| TLAALLLNRSESDIRYLLGYVYQQ | 2.7 |
| TLAALLLNRSESDIRYLLGYVKQQ | 2.77 |
| TLDALLLNRSESDIRYLLGYVSQQ | 2 |
| TLWALLLNRSESDIRYLLGYVSQQ | 2.38 |
| TLAALLLNRHESDIRYLLGYVSQQ | 4.65 |
| TLAALLLNRNESDIRYLLGYVSQQ | 2.29 |
| TLAALLLNRSESDIRYTLGYVSQQ | 2.9 |
| TLAALLLNRSESDIRYLLLYVSQQ | 2.87 |
| TLAALLLNRSESDIRYLLFYVSQQ | 3.44 |
| TLAALLLNRSESDIRYLLGYVSCQ | 3.58 |

Variants of: B2
Test: as above
Settings: c terminus: a fixed tail appended

| Variant | protein stability index |
| --- | --- |
| PRIRAHLLPNPYQQDFLGLPEELR | 3.83 |
| PRERAHLLPNPYQQDFLGLPEELR | 3.82 |
| PRNRAHLLPNPYQQDFLGLPEELR | 3.61 |
| PRCRAHLLPNPYQQDFLGLPEELR | 3.15 |
| PRYRAHLLPNPYQQDFLGLPEELR | 3.72 |
| PRWRAHLLPNPYQQDFLGLPEELR | 3.27 |
| PRGRAHLLPNPPQQDFLGLPEELR | 4.41 |
| PRGRAHLLPNPRQQDFLGLPEELR | 4.33 |
| PRGRAHLLPNPQQQDFLGLPEELR | 4.07 |
| PRGRAELLPNPYQQDFLGLPEELR | 4.58 |
| PRGRACLLPNPYQQDFLGLPEELR | 3.68 |
| PRGRAALLPNPYQQDFLGLPEELR | 3.57 |
| PRGRANLLPNPYQQDFLGLPEELR | 4.26 |
| PRGRAHLLPNPYQQDFLGLPEEDR | 4.49 |
| PRGRAHLLPNPYQQDFLGLPEERR | 4.04 |
| PRGRAHLLPNPYQQDFLGLPEECR | 4.08 |
| PRGRAHLLPNPYQQDFLGLPEEYR | 3.88 |
| PRGRAHLLPNPYQQDFLGLPEEGR | 4.41 |
| PRGRAHLLPNPYQQDFLGLPEEPR | 3.6 |
| PRGRAHLLPNPYQQDFLGLPEEMR | 4.33 |
| PRGRAHLLPNPYQQDFLGLPEELY | 3.05 |
| PRGRAHLLPNPYQQDFLGLPEELE | 4.17 |
| PRGRAHLLPNPYQQDFLGLPEELS | 3.7 |
| PRGRAHLLPNPYQQDFLGLPEELQ | 3.89 |
| PRGRAHLLPNPYQQDFLGLPEELI | 3.64 |

| Variant | protein stability index |
| --- | --- |
| PRGRIHLLPNPYQQDFLGLPEELR | 2.96 |
| PRGRSHLLPNPYQQDFLGLPEELR | 4.04 |
| PRGRRHLLPNPYQQDFLGLPEELR | 3.34 |
| PEGRAHLLPNPYQQDFLGLPEELR | 4.69 |
| PIGRAHLLPNPYQQDFLGLPEELR | 3.62 |
| PGGRAHLLPNPYQQDFLGLPEELR | 4 |
| PRGRAHLLPNPYQCDFLGLPEELR | 3.46 |
| PRGRAHLLPNPYQVDFLGLPEELR | 3.26 |
| PRGRAHLLPNPYQTDFLGLPEELR | 3.77 |
| PRGRAHLLPNPYQPDFLGLPEELR | 4.5 |
| PRGRAHLLPNPYQKDFLGLPEELR | 4.01 |
| PRGRAHLLPNPYQFDFLGLPEELR | 3.66 |
| PRGRAHLLPNPYQDDFLGLPEELR | 4.7 |
| PRGRAHLLDNPYQQDFLGLPEELR | 3.79 |
| PRGRAHLLGNPYQQDFLGLPEELR | 2.77 |
| PRGRAHLLYNPYQQDFLGLPEELR | 3.32 |
| PRGRAHLLKNPYQQDFLGLPEELR | 3.73 |
| PRGRAHLLTNPYQQDFLGLPEELR | 3.61 |
| PRGRAHLLENPYQQDFLGLPEELR | 3.89 |
| PRGRAHLLHNPYQQDFLGLPEELR | 3.29 |
| PRGRAHLLPNPYQQDFLGLPNELR | 3.63 |
| PRGRAHLLPNPYQQDFLGLPSELR | 3.29 |
| PRGRAHLLPNPYQQDFLGLPPELR | 3.6 |
| PRGRAHLLPNPYQQDFLGLPDELR | 3.51 |
| PRGRAHLLPNPYQQDFLGLPYELR | 2.75 |

| Variant | protein stability index |
| --- | --- |
| PRGRAHLLPNPYQQDFLGLPHELR | 3.44 |
| PRGRAHLLPNPYQQDHLGLPEELR | 4.44 |
| PRGRAHLLPNPYQQDELGLPEELR | 4.63 |
| PRGRAHLLPNPYQQDQLGLPEELR | 3.84 |
| PRGRAHLLPNPYQQDCLGLPEELR | 4.11 |
| PRGRAHLLPNPYQQDKLGLPEELR | 4.22 |
| PRGRAHLLPNPYQQDRLGLPEELR | 4.15 |
| PRGRAHLLPNPYQQDFLELPEELR | 4.36 |
| PRGRAHLLPNPYQQDFLCLPEELR | 3.9 |
| PRGRAHLLPNPYQQDFLLLPEELR | 3.7 |
| PRGRAHLLPNPYQQDFLHLPEELR | 4.19 |
| PRGRAHLLPNPYQQDFLQLPEELR | 4.27 |
| PRGRAHLLPNPYQQDFLDLPEELR | 4.66 |
| PRGRAHLLPNPYQQDFLRLPEELR | 3.32 |
| PRGRAHLLPNPYQQSFLGLPEELR | 3.19 |
| PRGRAHLLPNPYQQCFLGLPEELR | 2.67 |
| PRGRAHLLPNPYQQPFLGLPEELR | 3.76 |
| PRGRAHLLPNPYQQQFLGLPEELR | 3.69 |
| PRGPAHLLPNPYQQDFLGLPEELR | 3.92 |
| PRGTAHLLPNPYQQDFLGLPEELR | 3.68 |
| PRGRAHLLPNSYQQDFLGLPEELR | 3.83 |
| PRGRAHLLPNHYQQDFLGLPEELR | 3.33 |
| PRGRAHLLPNFYQQDFLGLPEELR | 3.44 |
| PRGRAHLLPNGYQQDFLGLPEELR | 4.3 |
| PRGRAHLLPNPYQQDFLGSPEELR | 4 |

| Variant | protein stability index |
| --- | --- |
| PRGRAHLLPNPYQQDFLGFPEELR | 3.31 |
| PRGRAHLLPNPYQQDFLGDPEELR | 4.68 |
| PRGRAHLLPNPYQQDFLGHPEELR | 4.21 |
| PRGRAHLLPNPYQQDFLGYPEELR | 3.82 |
| PRGRAHRLPNPYQQDFLGLPEELR | 4.12 |
| PRGRAHGLPNPYQQDFLGLPEELR | 4.08 |
| PRGRAHDLPNPYQQDFLGLPEELR | 3.96 |
| PRGRAHNLPNPYQQDFLGLPEELR | 4.33 |
| PRGRAHSLPNPYQQDFLGLPEELR | 4.98 |
| PRGRAHLRPNPYQQDFLGLPEELR | 3.56 |
| PRGRAHLVPNPYQQDFLGLPEELR | 4.02 |
| PRGRAHLWPNPYQQDFLGLPEELR | 2.56 |
| PRGRAHLGPNPYQQDFLGLPEELR | 3.59 |
| PRGRAHLYPNPYQQDFLGLPEELR | 3.25 |
| PRGRAHLLPNPYEQDFLGLPEELR | 4.05 |
| PRGRAHLLPNPYQQDFLGLPEPLR | 3.25 |
| PRGRAHLLPNPYQQDFLGLPESLR | 3.62 |
| PRGRAHLLPNPYQQDFLGLPEILR | 2.59 |
| PRGRAHLLPNPYQQDFLGLPEQLR | 3.57 |
| PRGRAHLLPIPYQQDFLGLPEELR | 3.97 |
| PRGRAHLLPEPYQQDFLGLPEELR | 3.61 |
| PRGRAHLLPLPYQQDFLGLPEELR | 3.69 |
| PRGRAHLLPDPYQQDFLGLPEELR | 4.16 |
| PRGRAHLLPMPYQQDFLGLPEELR | 3.54 |
| PRGRAHLLPCPYQQDFLGLPEELR | 3.58 |

| Variant | protein stability index |
| --- | --- |
| KRGRAHLLPNPYQQDFLGLPEELR | 3.22 |
| RRGRAHLLPNPYQQDFLGLPEELR | 3.06 |
| HRGRAHLLPNPYQQDFLGLPEELR | 3.6 |
| FRGRAHLLPNPYQQDFLGLPEELR | 2.61 |
| DRGRAHLLPNPYQQDFLGLPEELR | 4.1 |
| PRGRAHLLPNPYQQDFLGLAEELR | 3.46 |
| PRGRAHLLPNPYQQDFLGLSEELR | 3.39 |
| PRGRAHLLPNPYQQDFLGLREELR | 3.23 |
| PRGRAHLLPNPYQQDFMGLPEELR | 3.44 |
| PRGRAHLLPNPYQQDFIGLPEELR | 2.85 |
| PRGRAHLLPNPYQQDFKGLPEELR | 4.42 |
| PRGRAHLLPNPYQQDFEGLPEELR | 4.94 |
| PRGRAHLLPNPYQQDFDGLPEELR | 4.87 |
| PRGRAHLLPNPYQQDFVGLPEELR | 4.52 |
| PRGRAHLLPNPYQQDFGGLPEELR | 3.84 |
| PRGRAHLLPNPYQQDFHGLPEELR | 4.41 |
| PRGRAHLLPNPYQQDFQGLPEELR | 4.4 |
| PRGRAHLLPNPYQQDFAGLPEELR | 4.43 |
| PRGRAHLLPNPYQQDFCGLPEELR | 4.04 |
| PRGRAHLLPNPYQQDFFGLPEELR | 3.47 |
| PRGRAHLLPNPYQQDFTGLPEELR | 4.17 |
